Target: ETS1:RUNX1 (Homo sapiens, UniProt P14921;Q01196 full;full)
Test: gcPBM; 1 nM ETS1 + 25 nM RUNX1, anti-ETS1 signal, normalised
Conditions: tags: N-terminal GST (pDEST15), kept (PMC6008103); copies: 1;1; label: surface-attached array probe

Chain of ETS1:RUNX1 (P14921 whole entry, chain 1 of 2): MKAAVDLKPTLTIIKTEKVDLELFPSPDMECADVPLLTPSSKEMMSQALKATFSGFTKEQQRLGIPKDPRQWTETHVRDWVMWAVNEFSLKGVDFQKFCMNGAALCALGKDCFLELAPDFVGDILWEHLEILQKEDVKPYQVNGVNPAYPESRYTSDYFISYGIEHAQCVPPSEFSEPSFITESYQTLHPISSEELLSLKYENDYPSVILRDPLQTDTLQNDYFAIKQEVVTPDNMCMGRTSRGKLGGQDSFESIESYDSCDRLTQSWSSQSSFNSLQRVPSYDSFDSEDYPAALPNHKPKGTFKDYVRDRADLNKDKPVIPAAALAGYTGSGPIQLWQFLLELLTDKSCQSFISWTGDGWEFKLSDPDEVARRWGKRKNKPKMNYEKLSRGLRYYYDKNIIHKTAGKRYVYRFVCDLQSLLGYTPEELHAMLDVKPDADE
Chain of ETS1:RUNX1 (Q01196 whole entry, chain 2 of 2): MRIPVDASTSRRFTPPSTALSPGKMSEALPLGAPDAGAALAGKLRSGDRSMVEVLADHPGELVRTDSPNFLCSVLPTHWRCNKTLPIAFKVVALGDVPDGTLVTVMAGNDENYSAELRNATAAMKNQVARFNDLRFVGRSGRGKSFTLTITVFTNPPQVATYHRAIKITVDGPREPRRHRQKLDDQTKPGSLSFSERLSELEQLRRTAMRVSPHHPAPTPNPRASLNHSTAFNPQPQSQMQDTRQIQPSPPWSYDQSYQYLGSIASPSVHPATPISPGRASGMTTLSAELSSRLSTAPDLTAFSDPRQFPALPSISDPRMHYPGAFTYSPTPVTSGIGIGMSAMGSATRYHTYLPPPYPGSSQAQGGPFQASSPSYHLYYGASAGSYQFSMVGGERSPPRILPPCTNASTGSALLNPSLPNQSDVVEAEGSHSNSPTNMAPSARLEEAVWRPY

Row | Binder | binding signal
1 | Table S2 A row 233 (dsDNA) DNA 1: TCCTATATACTTCCGTTTGCCTCGCGGTTTCTTTCT DNA 2: AGAAAGAAACCGCGAGGCAAACGGAAGTATATAGGA | 4400 PBM fluorescence, median of replicate spots
2 | Table S2 A row 1216 (dsDNA) DNA 1: CCCGGCCACTTCCGCCTATTGCGGGCGTCGGCTAGG DNA 2: CCTAGCCGACGCCCGCAATAGGCGGAAGTGGCCGGG | 3350 PBM fluorescence, median of replicate spots
3 | Table S2 A row 274 (dsDNA) DNA 1: ATGCCTTCTTCCAGAGGATGTGGTCGCTACTAGTGG DNA 2: CCACTAGTAGCGACCACATCCTCTGGAAGAAGGCAT | 4270 PBM fluorescence, median of replicate spots
4 | Table S2 A row 1340 (dsDNA) DNA 1: CATTTCAGTCCAGGATGTGGGTGCACACACCGCTTC DNA 2: GAAGCGGTGTGTGCACCCACATCCTGGACTGAAATG | 2860 PBM fluorescence, median of replicate spots
5 | Table S2 A row 762 (dsDNA) DNA 1: CAGAAAGAGGAAATGATGCGAGTCCACACCGCAGGC DNA 2: GCCTGCGGTGTGGACTCGCATCATTTCCTCTTTCTG | 2620 PBM fluorescence, median of replicate spots
6 | Table S2 A row 294 (dsDNA) DNA 1: GCAGGACTTCCTGTGTTGTGCTAACCTCAAATTACA DNA 2: TGTAATTTGAGGTTAGCACAACACAGGAAGTCCTGC | 2660 PBM fluorescence, median of replicate spots
7 | Table S2 A row 1390 (dsDNA) DNA 1: CTGTGACACGTGCGGAAGCTGTGGTAAGTGCATCCA DNA 2: TGGATGCACTTACCACAGCTTCCGCACGTGTCACAG | 3240 PBM fluorescence, median of replicate spots
8 | Table S2 A row 1073 (dsDNA) DNA 1: ACCTTGCCTAGAGGAAGTGGTTTTTCGAATCTGAGT DNA 2: ACTCAGATTCGAAAAACCACTTCCTCTAGGCAAGGT | 4490 PBM fluorescence, median of replicate spots
9 | Table S2 A row 485 (dsDNA) DNA 1: TGAAGTACTAGTCAAGGATGTGGTTTTACATAGCAG DNA 2: CTGCTATGTAAAACCACATCCTTGACTAGTACTTCA | 4920 PBM fluorescence, median of replicate spots
10 | Table S2 A row 108 (dsDNA) DNA 1: CACTTCCTGTCAAAGCCAGTTCCTTAACCGCTTAGG DNA 2: CCTAAGCGGTTAAGGAACTGGCTTTGACAGGAAGTG | 2540 PBM fluorescence, median of replicate spots
11 | Table S2 A row 777 (dsDNA) DNA 1: CAGGAGCAGTGTAGAGGAAGTGGTTTCCATCACGGA DNA 2: TCCGTGATGGAAACCACTTCCTCTACACTGCTCCTG | 4870 PBM fluorescence, median of replicate spots
12 | Table S2 A row 505 (dsDNA) DNA 1: ACCCAGTAGGGGCCAGGATGTGGTGAAAAGAGAATT DNA 2: AATTCTCTTTTCACCACATCCTGGCCCCTACTGGGT | 3620 PBM fluorescence, median of replicate spots
13 | Table S2 A row 1756 (dsDNA) DNA 1: GCCAACAGGAAGCTGGAAGCCAACCGCACTGTGTGC DNA 2: GCACACAGTGCGGTTGGCTTCCAGCTTCCTGTTGGC | 3630 PBM fluorescence, median of replicate spots
14 | Table S2 A row 238 (dsDNA) DNA 1: GCGCGGACAGAGAAAGGATGTGGTATAGCAGAAAGT DNA 2: ACTTTCTGCTATACCACATCCTTTCTCTGTCCGCGC | 4350 PBM fluorescence, median of replicate spots
15 | Table S2 A row 1325 (dsDNA) DNA 1: GGACCGGTGTCTGGCGGATGCGGTCGTGAAGATAGG DNA 2: CCTATCTTCACGACCGCATCCGCCAGACACCGGTCC | 4590 PBM fluorescence, median of replicate spots
16 | Table S2 A row 877 (dsDNA) DNA 1: GAGTGGGCGGAAATCCGTGCCTGGCAGACCACAAAG DNA 2: CTTTGTGGTCTGCCAGGCACGGATTTCCGCCCACTC | 4940 PBM fluorescence, median of replicate spots
17 | Table S2 A row 340 (dsDNA) DNA 1: CAGAGCAGAGAGGAAGTGGTGGTGGCCACAGTCCCA DNA 2: TGGGACTGTGGCCACCACCACTTCCTCTCTGCTCTG | 2770 PBM fluorescence, median of replicate spots
18 | Table S2 A row 442 (dsDNA) DNA 1: GGAAAAGGAAGTGGCTTTGACTTGCGGGCAGGGAGA DNA 2: TCTCCCTGCCCGCAAGTCAAAGCCACTTCCTTTTCC | 3710 PBM fluorescence, median of replicate spots
19 | Table S2 A row 1108 (dsDNA) DNA 1: CATGGGGAGGAGGAAGTGGTGGCGGCCGCAGGCCAG DNA 2: CTGGCCTGCGGCCGCCACCACTTCCTCCTCCCCATG | 2880 PBM fluorescence, median of replicate spots
20 | Table S2 A row 791 (dsDNA) DNA 1: CGGCAGGCAAGCAGGAAACCGCGAGTGGAGAAAGGG DNA 2: CCCTTTCTCCACTCGCGGTTTCCTGCTTGCCTGCCG | 2990 PBM fluorescence, median of replicate spots
21 | Table S2 A row 386 (dsDNA) DNA 1: AACTGGGCGGAAAGAACGGCTAACCGCAAGCTGCCG DNA 2: CGGCAGCTTGCGGTTAGCCGTTCTTTCCGCCCAGTT | 3490 PBM fluorescence, median of replicate spots
22 | Table S2 A row 189 (dsDNA) DNA 1: TGGCAGAGCACATCCTGTGCGGTTTTCAGTTTTGCT DNA 2: AGCAAAACTGAAAACCGCACAGGATGTGCTCTGCCA | 3840 PBM fluorescence, median of replicate spots

Row | Binder | binding signal
23 | Table S2 A row 995 (dsDNA) DNA 1: GCGCCCTCCAGGAAACGCCGCGGTTTACTGTCTGCC DNA 2: GGCAGACAGTAAACCGCGGCGTTTCCTGGAGGGCGC | 4310 PBM fluorescence, median of replicate spots
24 | Table S2 A row 1268 (dsDNA) DNA 1: GAATGGCGGATGTGGCTGGGGAGAGAAAGCCGCAGA DNA 2: TCTGCGGCTTTCTCTCCCCAGCCACATCCGCCATTC | 4780 PBM fluorescence, median of replicate spots
25 | Table S2 A row 1124 (dsDNA) DNA 1: ATCTTTTGATGAGGATGTGGTTTCCAGGCAGGTGCT DNA 2: AGCACCTGCCTGGAAACCACATCCTCATCAAAAGAT | 4440 PBM fluorescence, median of replicate spots
26 | Table S2 A row 1400 (dsDNA) DNA 1: AGCTGCATTTCCGGGCAGGCAATGAAACCACAGAGT DNA 2: ACTCTGTGGTTTCATTGCCTGCCCGGAAATGCAGCT | 3930 PBM fluorescence, median of replicate spots
27 | Table S2 A row 18 (dsDNA) DNA 1: GAGGCAGGCGGATGTCAGTGTGGTTAGAGCACAGTG DNA 2: CACTGTGCTCTAACCACACTGACATCCGCCTGCCTC | 3320 PBM fluorescence, median of replicate spots
28 | Table S2 A row 1293 (dsDNA) DNA 1: AGGTCGCCCTCCGGATGCGGTCCCCACACCGCCTGC DNA 2: GCAGGCGGTGTGGGGACCGCATCCGGAGGGCGACCT | 3170 PBM fluorescence, median of replicate spots
29 | Table S2 A row 1339 (dsDNA) DNA 1: GTAGGGAAGACGGGATGTGGGTTTTCAGCCGTGGCC DNA 2: GGCCACGGCTGAAAACCCACATCCCGTCTTCCCTAC | 4760 PBM fluorescence, median of replicate spots
30 | Table S2 A row 1553 (dsDNA) DNA 1: GAAGGAAGTGGAGACAGTAAGGGGAAACCACAAACC DNA 2: GGTTTGTGGTTTCCCCTTACTGTCTCCACTTCCTTC | 3570 PBM fluorescence, median of replicate spots
31 | Table S2 A row 813 (dsDNA) DNA 1: AAGTTGATTTCCGGGTAGTCTGTGGTTTCCTAATCA DNA 2: TGATTAGGAAACCACAGACTACCCGGAAATCAACTT | 4110 PBM fluorescence, median of replicate spots
32 | Table S2 A row 34 (dsDNA) DNA 1: GGAGGTGGGGAGGAAGTTCTGAAACCACACACATTT DNA 2: AAATGTGTGTGGTTTCAGAACTTCCTCCCCACCTCC | 4160 PBM fluorescence, median of replicate spots
33 | Table S2 A row 122 (dsDNA) DNA 1: GAGAAACAGGAAGAGGGGTGGTGGTTACGGAACACG DNA 2: CGTGTTCCGTAACCACCACCCCTCTTCCTGTTTCTC | 4040 PBM fluorescence, median of replicate spots
34 | Table S2 A row 552 (dsDNA) DNA 1: AACCATTACAGGATGTGAGATTCAAACCACTAACAG DNA 2: CTGTTAGTGGTTTGAATCTCACATCCTGTAATGGTT | 4190 PBM fluorescence, median of replicate spots
35 | Table S2 A row 1415 (dsDNA) DNA 1: AGGCTGTGTGAAGGATGTGGTCAGGCGGAGGCCAGG DNA 2: CCTGGCCTCCGCCTGACCACATCCTTCACACAGCCT | 2710 PBM fluorescence, median of replicate spots
36 | Table S2 A row 585 (dsDNA) DNA 1: TGTATGAAAAAAACAGGAAACCACAGAGAACTGAGG DNA 2: CCTCAGTTCTCTGTGGTTTCCTGTTTTTTTCATACA | 4240 PBM fluorescence, median of replicate spots
37 | Table S2 A row 149 (dsDNA) DNA 1: TTCAACAGGATATTGCTTTGTTACCACAGGCCCTTT DNA 2: AAAGGGCCTGTGGTAACAAAGCAATATCCTGTTGAA | 3020 PBM fluorescence, median of replicate spots
38 | Table S2 A row 426 (dsDNA) DNA 1: GCCGGAAGCCACGCAGGGCCACGTCTGCGGTTCTGA DNA 2: TCAGAACCGCAGACGTGGCCCTGCGTGGCTTCCGGC | 4460 PBM fluorescence, median of replicate spots
39 | Table S2 A row 464 (dsDNA) DNA 1: AGCGACAGCGGATGCTCTCTGGCCGCAACATTCTTT DNA 2: AAAGAATGTTGCGGCCAGAGAGCATCCGCTGTCGCT | 2940 PBM fluorescence, median of replicate spots
40 | Table S2 A row 717 (dsDNA) DNA 1: GGACAGGAAGTTCCTGCAGCTTCTACCACAAACCTA DNA 2: TAGGTTTGTGGTAGAAGCTGCAGGAACTTCCTGTCC | 4990 PBM fluorescence, median of replicate spots
41 | Table S2 A row 1407 (dsDNA) DNA 1: TGTGTATGAGAACGGATATAGGTGGTTTTATAAGGA DNA 2: TCCTTATAAAACCACCTATATCCGTTCTCATACACA | 3120 PBM fluorescence, median of replicate spots
42 | Table S2 A row 1686 (dsDNA) DNA 1: TGAGCCTTGGAAGGAAATGATTCACCACAATACTGT DNA 2: ACAGTATTGTGGTGAATCATTTCCTTCCAAGGCTCA | 2590 PBM fluorescence, median of replicate spots
43 | Table S2 A row 1300 (dsDNA) DNA 1: CAAGTAATCTGCTCAGGAAGTGGTTTGAATAGAGGA DNA 2: TCCTCTATTCAAACCACTTCCTGAGCAGATTACTTG | 4710 PBM fluorescence, median of replicate spots
44 | Table S2 A row 328 (dsDNA) DNA 1: AGTAGAGGAGGAAGTTAAATGTGGTTTTCTGGGTGG DNA 2: CCACCCAGAAAACCACATTTAACTTCCTCCTCTACT | 2960 PBM fluorescence, median of replicate spots

Reference: article PMC10681739, “High-throughput data and modeling reveal insights into the mechanisms of cooperative DNA-binding by transcription factor proteins”
